Measurements as given in US20240209104A1 (SHANGHAI ACEMAB, published 2024).
Positions count from the first letter of the chain named.

B1: 29A9-5 (antibody, V domains shown)
VH: QVQLQESGPGLVKPSGTLSLTCAVFGDSISSSYWWSWVRQPPGKGLEWIGEIYHSGSTHYNPSLKSRVTISVDKSKNHLSLKLISVTDADTAVYYCAGEDTGWPFDFWGQGTLVTVSS
VL: not shown
notes: hybridoma antibody, tested as culture supernatant
B2: 24E10-4 (antibody, V domains shown)
VH: QVQMQESGPGLVKPSGTLSLTCAVSGGSISSSKWWSWVRQPPGKGLEWIGEIYHSGSTNYNPSLKSRVTISIDKSKNQFSLRLTSVTAADTAVYYCARGDVLLWFGGQGTLVTVSS
VL: EIVLTQSPGTLSLSPGERATLSCWASQSVSSTYLAWYQQKPGQAPRLLIYGASIRATGIPDRFSGSGSGTDFTLTISSLEPEDFAVYYCQQYGSSPITFGQGTRLEIKR
notes: as for B1
B3: 26C3-4 (antibody, V domains shown)
VH: B2 VH with M4L, A23D, K33N, I72V, F79V, R82K, T84N, V101I
VL: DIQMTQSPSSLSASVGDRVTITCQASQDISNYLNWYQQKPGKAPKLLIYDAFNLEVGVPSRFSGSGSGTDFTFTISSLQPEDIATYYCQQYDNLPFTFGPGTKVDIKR
notes: as for B1
B4: 17D5-11 (antibody, V domains shown)
VH: QVQLQESGPGLVKPSETLSLTCAVSGGSINSTNWWSWVRQPPGKGLEWIGEIYHSGSTNYNPSLKSRVTISVDKSKNQFSLKLSSVTAADTAVYYCARGGAVALDYWGQGTLVTVSS
VL: B2 VL with T10P, E17D, W24R, S28T, T32S, Q38L, S78R, S94N
notes: as for B1
B5: 18F5-2 (antibody, V domains shown)
VH: B2 VH with T21I
VL: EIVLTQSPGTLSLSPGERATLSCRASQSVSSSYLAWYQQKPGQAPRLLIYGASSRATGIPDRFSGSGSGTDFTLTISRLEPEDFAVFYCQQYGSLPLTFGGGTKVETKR
notes: as for B1
B6: 28E3-4 (antibody, V domains shown)
VH: QVQLQESGPGLVKPSGTLSLTCAVSGGSISRSNWWTWVRQSPGKGLEWIGEIYHSGNTNYNPSLKSRVTISLDKSKNQFSLKLSSVTAADTAVYYCASSGSLYMDVWGKGTTVTVSS
VL: DIQMTQSPSSLSASVGDRVTISCRASQSTSSYLNWYQQKPGKAPRLLIYGASSLQSGVPSRFSGSGSGTDFILTISSLQPEDFATYYCQQSYSIPITFGQGTRLEIKR
notes: as for B1
B7: 29B8-3 (antibody, V domains shown)
VH: QVQLQESGPGLVKPSGTLSLTCAVSGVSISSSNWWSWVRQPPGKGLEWIGEIYHSGNTNYNPSLKSRVTISVDKSKNQFSLKLSSVTAADTAVYYCAETSTITTNYWGQGTLVTVSS
VL: B6 VL with S22T, S28T, T29I, R45K, G50A, G66E, I72T, S91T
notes: as for B1
B8: 4D9-12 (antibody, V domains shown)
VH: B6 VH with R31S, T36S, S41P, N59I
VL: B6 VL with S12L, A13S, Q27H, S28G, T29S, S31T, S67F, L78M
notes: as for B1
B9: 35B8-6 (antibody, V domains shown)
VH: QITLKESGPTLVKPTQTLTLTCTFSGFSLSTSAVNVGWIRQPHGKALEWLALIFWNDDKRYSPSLKNRLTITKDTSKDQVVLTMSNMDPVDTATYYCAQYNWNSSFDYWGQGTLVTVSS
VL: DIQMTQSPSSLSASLGDRVTITCQASQDINTYLNWYQQKPGKAPKVLIYDASNLETGVPSRFSGSGSGTDFTFTISSLQPEDIATFYCQQYDNLITFGGGTKVEIKR
notes: as for B1
B10: 24F10-1 (antibody, V domains shown)
VH: QVQLQESGPGLVKPSGNLSLTCVVSGASIINNNWWTWVRQSPGKGLEWIGEIFHSGTTNYNPSLKNRVTISVDKAKNQFSLNLKSVTAADTAVYYCVAYVSGTYYNFDYWGQGTLVTVSS
VL: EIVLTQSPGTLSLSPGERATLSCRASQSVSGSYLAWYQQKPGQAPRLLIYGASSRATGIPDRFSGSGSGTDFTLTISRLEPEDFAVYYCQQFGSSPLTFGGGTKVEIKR
notes: as for B1
B11: 21F3-11 (antibody, V domains shown)
VH: QVQLQESGPGLVKPSGTLSLTCAVSGGSISSSNWWSWVRQPPGKGLEWIGEIYHGGSTNYNPSLKSRITISVDKSKNQFSLKLSSVTAADTAMYYCATLPGYSSGWFDSWGQGTLVTVSS
VL: EIVLMQSPGTLSLSPGERATLSCRASQSVSSSYLAWYQQKPGQAPSLLIYGASNRASGIPDRFSGSGSGTDFTLTITRLEPEDFAVYYCQQYGSSPLTFGGGTRVEIKR
notes: as for B1
B12: 20D2-12 (antibody, V domains shown)
VH: QVQLVESGGGLVKPGGSLRLSCAASGFTFSDYYMSWIRQAPGRGLEWISYISGSDSTIYYEDSVMGRFTISRDNAKNSLYLQMNSLRAEDTAVYYCARDRDVYGYSGYGYFDYWGQGTLVTVSS
VL: B2 VL with W24R, T32R, I54N, I59M, S78R
notes: as for B1
B13: 24A12-12 (antibody, V domains shown)
VH: QVQLQESGPGLVKPAGTLSLTCAVSGGSISSSNWWNWVRQPPGKGLEWIGEIYHSGSTNYNPSLKSRVTISVDTSKNQFSLKLTSVTAADTAVYYCARTGPTVTTDYWGQGTLVTVSS
VL: B11 VL with M5T, S46R, N54Y, S57T, I59M, D61E, T77S, V86I, S94R, R104K
notes: as for B1
B14: 24F8-7 (antibody, V domains shown)
VH: QVQLQESGPGLVKPSGTLSLTCAVSGGSISSYNWWSWVRQPPGKGLEWIGEIYHSGSTNYNPSLKSRVTISVDKSKNQFSLKLSSVTAADTAVYYCARDEDYYGSGNYYHWGQGTLVTVSS
VL: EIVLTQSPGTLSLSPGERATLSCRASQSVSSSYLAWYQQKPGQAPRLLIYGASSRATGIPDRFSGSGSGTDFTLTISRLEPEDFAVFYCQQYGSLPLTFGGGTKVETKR
notes: as for B1
B15: 18F11-4 (antibody, V domains shown)
VH: B14 VH
VL: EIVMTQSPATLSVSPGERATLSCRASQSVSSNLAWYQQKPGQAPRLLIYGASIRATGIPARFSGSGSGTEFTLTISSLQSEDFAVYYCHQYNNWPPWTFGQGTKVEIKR
notes: as for B1
B16: 21F9-12 (antibody, V domains shown)
VH: B14 VH with S57N, V93M, E100Q, Y108F, H110Y
VL: not shown
notes: as for B1
B17: 48D10-5 (antibody, V domains shown)
VH: QVQLVQSGAEVKKPGASMKVSCKASGYTFANFGINWVRQAPGQGLEWMGWISAYNGYTNYAQQFQGRITMTTDTSTSTAYMELRSLRSDDTAIYYCVIWFGELLSFDYWGQGTLVTVSS
VL: DIQMTQFPSSLSASVGDRVTITCRASQDISNYLAWFQQKPGKAPKSLIYAASSLQSGVPSKFSGNGFGTDFTFPLSRMQPEDFASSYCQQYNNYTFTFGRGTKVEIKR
notes: as for B1
B18: 15A7-6 (antibody, V domains shown)
VH: QVQLQESGPGLVKPSGTLSLTCAVSGGSINSSSWWSWVRQPPGKGLEWIGEIYHSGDTNYNPSLKSRVAISVDKSKNQFSLKLSSVTAADTAVYYCARDQADYFGSGNYVYWGQGTLVTVSS
VL: EIVLMQYPGTLSLSSGERRVLSCRPSQSVSSSYLAWYQQKPGQAPRLLIYGASSRASGIPDRFSGSGSGTDFTLTISRLEPEDFAVYYCQQYGSLPITFGQGTRVEIKR
notes: as for B1
B19: 21D2-3 (antibody, V domains shown)
VH: QVQLVESGGGLVKPGGSLRLSCAASGFTFSDYYMSWIRQAPGKGLEWVSYISSSGTTIYCADSVKGRFTISRDNAKNSLYLQMNSLRAEDTAVYYCARDSSTWYEGNYFDYWGQGTLVTVSS
VL: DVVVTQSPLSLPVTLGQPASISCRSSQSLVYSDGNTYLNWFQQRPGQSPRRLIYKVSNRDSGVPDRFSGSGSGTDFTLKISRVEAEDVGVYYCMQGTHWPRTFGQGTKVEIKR
notes: as for B1

What follows are binders tested against T1, hOX40-EC-His (human, UniProt P43489 29-214) (assay: ELISA, supernatant stoste, coated OX40 (CK60)).
T1 construct: extracellular domain; bought protein; also called recombinant human OX40 antigen protein; human OX40 extracellular segment antigen; not shown: 6 His label
T1 sequence (looked up): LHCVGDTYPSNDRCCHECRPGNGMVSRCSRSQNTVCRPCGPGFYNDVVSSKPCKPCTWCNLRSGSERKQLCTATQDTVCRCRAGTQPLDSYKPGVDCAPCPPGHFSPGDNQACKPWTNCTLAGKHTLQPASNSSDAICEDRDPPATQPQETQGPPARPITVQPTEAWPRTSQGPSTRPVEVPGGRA

Row | Binder | 450 nm light absorption
1 | B1 | 1.93 OD450
2 | B2 | 2.51 OD450
3 | B3 | 2.32 OD450
4 | B4 | 2.46 OD450
5 | B5 | 2.35 OD450
6 | B6 | 2.27 OD450
7 | B7 | 2.46 OD450
8 | B8 | 2.39 OD450
9 | B9 | 1.47 OD450
10 | B10 | 2.41 OD450
11 | B11 | 2.58 OD450
12 | B12 | 3.81 OD450
13 | B13 | 2.81 OD450
14 | B14 | 2.4 OD450
15 | B15 | 1.87 OD450
16 | B16 | 2.37 OD450
17 | B17 | 2.45 OD450
18 | B18 | 2.25 OD450
19 | B19 | 2.03 OD450

The binders below were run against T1, hOX40-EC-His (assay: ELISA, supernatant 1:100, coated hOX40-EC-His).

Row | Binder | IgG ELISA (1:100)
20 | B6 | 2.1 OD650
21 | B8 | 2.3 OD650
22 | B9 | 2.1 OD650
23 | B11 | 1.9 OD650
24 | B19 | 2.1 OD650

The binders below were run against T1, hOX40-EC-His (assay: ELISA, supernatant diluted 100 times, coated OX40 (CK60)).

Row | Binder | 450 nm light absorption
25 | B1 | 0.878 OD450
26 | B2 | 2.4 OD450
27 | B3 | 1.91 OD450
28 | B4 | 2.32 OD450
29 | B5 | 2.2 OD450
30 | B6 | 2.26 OD450
31 | B7 | 2.36 OD450
32 | B8 | 1.26 OD450
33 | B9 | 0.215 OD450
34 | B10 | 2.2 OD450
35 | B11 | 2.61 OD450
36 | B12 | 2.32 OD450
37 | B13 | 2.8 OD450
38 | B14 | 2.14 OD450
39 | B15 | 1.32 OD450
40 | B16 | 2 OD450
41 | B17 | 2.35 OD450
42 | B18 | 1.4 OD450
43 | B19 | 1.38 OD450

What follows are binders tested against T2, OX40 on OX40 over-expressed cells (UniProt P43489 29-277) (assay: flow cytometry, supernatant on OX40 over-expressed cells).
T2 construct: whole, on cells; human implied; also called OX40 expressed on the surface of OX40 expressing cell
T2 sequence (looked up): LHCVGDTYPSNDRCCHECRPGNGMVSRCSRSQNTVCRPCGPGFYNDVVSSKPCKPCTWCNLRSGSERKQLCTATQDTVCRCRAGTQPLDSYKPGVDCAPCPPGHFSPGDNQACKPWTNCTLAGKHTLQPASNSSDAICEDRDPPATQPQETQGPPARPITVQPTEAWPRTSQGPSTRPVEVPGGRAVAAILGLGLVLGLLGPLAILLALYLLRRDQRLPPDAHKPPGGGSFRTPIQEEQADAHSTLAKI
Experimental: After collecting OX40 over-expressed cells by 200G centrifugation, wash them with PBS containing 3% FCS, and then resuspend them in 2.5 ml of PBS containing 3% FCS. […] Finally, the cells were resuspended in […] of PBS containing 3% FCS for detection by flow cytometry.

Row | Binder | Y586 channel PE fluorescence value
44 | B1 | 221000
45 | B2 | 344000
46 | B3 | 416000
47 | B4 | 475000
48 | B5 | 432000
49 | B6 | 195000
50 | B7 | 388000
51 | B8 | 187000
52 | B9 | 243000
53 | B10 | 274000
54 | B11 | 171000
55 | B12 | 540000
56 | B13 | 343000
57 | B14 | 437000
58 | B15 | 402000
59 | B16 | 424000
60 | B17 | 358000
61 | B18 | 181000
62 | B19 | 202000
